Reference: a protein production outcome set (Wang et al. 2014)

Assay: label from the status in PepcDB records

Row | Sequence | protein production
1 | MKQNQYLFLLFTLIVLTGCGGTQKKLTEYVNPFLGTATLWEPEDLGYTRKIKSRTWGAETYPGATLPNAMVQLSPVTQFRSGAGYQYEDTVIYGFSHTAKGHWNLLHVPMLPVVGTIAPGNYCSGFSHEKESAHPGYYQVYLERYKVNAELTSTLRCAYHKYTFAKGDDKSLLVDIRRSNNDVRDWKIEKVDDNTFTGYQDGDGKIYFYAKTNYKIGQVEMVKDDKHEVAVLRFIDSKGVEPLEVKAGFSFVSIENAQMNLKAEMLNKSFAQVAEEADAAWEALLSKIQVAGGTEREKRLFYSTFFHAFKWPALRSDVNHEYTDVRGEVVNNGFHYYTDPSFWDDYRNKLVLIGMISPDVTTDIIRSIIDKGEKRDGYMPTFFHGDHASTFISGSWLRGLHDFDLERAYKLILKNATVPGKGGRRYLDEYMERGWIAEKDTVNVPTWDEYKGAVTKTQEYAYDDYAVALVAKELGDEANYKLMMERSNNYKTLFDPSTGFWRGKIDDGSWIQDFDPYYPYYQYMYREANAWNALFFAPHDPEGMIKLYPSKEAVEAKLDSLFSEPWRGYEAHNLTGFIGNYCHGNQPGHSIPYTYYFIDKQEKAQCILDSLMNHYYDMGADKLAYAGMDDAGEMSSWYVLNAIGLYTYSPADPEYIVTVPLFDKVTFNLNGRPFTIVKKGSGKKIIDITYDGKKIDGYFITHDQLREGKELVITTE | failed
2 | MKQPLRVLISCRPEENSGGKRSEQNDAVFEFAAWLARTSDINVRGITTFIRPWPSSSISKLGGKYHKWYKNLDSYYRSRTIKGLKEAGVEKSQWDDDVSVFVDGPSESTLLTHAAEEFEADLILLGSDATAPKGRFLASSTADALLHSSPVPLGLVPRGVKLSKKGVTRVNYAFTNESDDFEQGLRSSAELATNWNVPLRILAFSPTGITSAPTSRSLDISTELSSEWRELTLAMLDRARDGVLTDHPNLSVSSETGSGWGWSGAIDALRWKKGDLLCMGSHRTDTLSRVFVGSETMEIIRNSPVPTIIYPGL | failed
3 | MKQPTLAVIMTCHNRRNTTLACLQALYQQKNHFDVYLTDDGSTDGTAEFIKAEYPDVKIFQGDGNLFWVGGMHLAFGEAIKNQYDYYLWLNDDTFLEADALEKLLQVHENLAVEGYGQSIVVGSTQDPITKQATYGGAVKSKKWYSNKFEFLEPTSDVQKCDAMYGNCVLIPHSVTLKVGNIDTAFIHSLGDLDYALRARNLGCHVWVAPGYIGTCNKNSVRNSWVDTKLPVLERLRKILQIKGFPLKPWTTFCSRHSGPFWIFYWFLPYIRAIIGYKNLATSPTFSEDPKETKPEV | failed
4 | MKREEYLKNYLESYLRKKEVSLTEEEFNVILREFLRFAYNPEESGQEIADTADGSKTLIHKTYGEPYHSQTAGAIRESLYKFVRPSRILEKAKERKVIRILDVGFGLGYNLAVALKHLWEVNPKLRVEIISFEKELLKEFPILPEPYREIHEFLLERVPEYEGERLSLKVLLGDARKRIKEVENFKADAVFHDAFSPYKNPELWTLDFLSLIKERIDEKGYWVSYSSSLSVRKSLLTLGFKVGSSREIGRKRKGTVASLKAPVPPMEENEVRKLVLSPFAVPMRDEKLDKEPLEILIDYLLKVYKISR | not failed
5 | MKRFAFRVILHILLIVLFSIGSYLLFQKQLWFSTTICLILLITIGIHLYRMQFKQIALLRRLTDGLRYNDMMQTFHPPFNNKIMNEWAEELSDTLKDFRGRLLAEEIKHQYYENLLNKVDTAVLVADKAGHIEWMNQAAVTHLGQISQLPETLLKASVAHDTPVIRIEQNSTVLEMAISRTTFATQGREQQLISLKNIHSVLERNEMEAWQKLIRVLTHEIMNSITPIISLSETLSERGIPSQLGEKEYSVMLQAMQTIHRRSKGLLEFVENYRRLTRIPAPIRTQISIAELFTDLKKLFPEEEFQFEVPSPELKLNVDRTQIEQILINLLKNAREACSRKSDKKIQVKARKLSAGNTTLTISDNGEGILPDVLDKIFVPFFTTKTSGSGIGLSLCKQIMTLHEGSINVKSEVGKGSSFILTFPK | failed
6 | MKRFVLLDTTAIPENGGALCLFEYGEDFVIKIQGGDGGQLMNTRMHGSEDALAQIPCSKVAGRPNSRVLIGGLGMGFTLAAALKHLGKSAKVVVAELVPGVVEWNRGPLGEKSGRPLLDPRTVIRLEDVAKVLQAEPQGFDAIMLDVDNGPEGLTQKANSWLYSSAGLAACARALRPKGILAVWSASADRQFSERLRKAGFKAEEVQVFAHGNRGTRHTIWIAEKLKA | failed
7 | MKRIAFVGSVGAGKTTLFNALQGNYTLARKTLAVEFNDKGDIDTPGEYFSHPRWYHALITTLQDVDMLIYVHGANDPESRLPAGLLDIGVSKRQIAVISKTDMPDADVAATRKLLLETGFEEPIFELNSHDPQSVQQLVDYLASLTKQEEAGEKTHHSELEHHHHHH | not failed
8 | MKRIKTRAITLLALCIALNIVGSNIALMLKLPIYLDSIGTVLAAAVFGPLGGMLAGGATGVIVGATTDLYSLFFMPVQLLTGLVAGLLYRRIKPGTWRSNWWLAGVISLPGTLLSTAITVILFHGITSSGSSMLVQLLLGTGMGKTMAVFLIQVGTDYLDRFITVYVVALVYRALRYKLPQAN | failed
9 | MKRKGVGFSLPVTVVMLVIGFIYFASVFTFIDRWFSLTSSPGIANAAAFTALALMCIYNYSIAVFRDPGRVPLNYMPDVEDPESPVHEIKRKGGDLRYCQKCSHFKPPRAHHCRVCKRCVLRMDHHCIWINNCVGHTNYKVFFVFVVYAVTACVYSLVLLVGSLTVEPQDEEEEMGSYLRTIYVISAFLLIPLSIALGVLLGWHIYLILQNKTTIEVYHEGVRAMWLAEKGGQVYKHPYDIGAYENLTLILGPNILSWLCPTSRHIGSGVRFRTAFDSIPDSSETKH | failed
10 | MKRKLIYLFIALAATILPAHAQKFLNDALTLSNVSLWQQGNSLYVGMTVDMANLTIGSARSLSLIPLLTDGQHNVPLQEIIVNGKRREKAYLRGLAISKQESTAIIVPYNKRETFNYTQVIPYQPWMANASLQLVENLCGCGNYQEMNAQELITNDVSTEAKRLSAMSPIVAYIQPTVEVVKNRSEQYEAHLDFPVNKSVILTDFMNNHSELVNIHSMFDKIQNDKNLTVQSISIEGFASPEGPLAFNEQLSKKRAEALKDYLVKNEKASAKLYKVTFGGENWDGLVKALESSSMKDKETFLNIIKNTTNDVKRKQEIMKVGGGAPYRTMLKEIYPGLRKVNCKIDYTVVNFDVEQGRIIIRENPKYLSLNEMYQVANSYPKGSKDFVDVFDIAVRMYPTDAVANLNAAAVALSQKDINTALKYMEKADHTTAEFLNNTGVYNFLNGDIQRATAAFEQAAKLGNEAAQANLKQLQQIMNMKMSK | failed
11 | MKRKSLKSFIYVSALLVFLSGFVGVSLFVKSEVVEATTIGDDYPVKWKNLPLGGAIDDWRMYTRYCTSFVAYRLSTANNFELPSGFGNADRWGTEAMARGYKVDKNPKVGSVAWWTSTHVAWVAEVSGDNVKVEEYNYGFDGKYNTRWINKNSANGYIHFKDMPQTPVGWYNNGHYDYYYYADGTKAIGLTWVGTKRYNFDKNGAMYKNAWTNSDKYSYYSTSDGSLAVGLTWVGTKRYNFDKNGAMYKNAWTNSDKYSYYSTSDGSLAVGLTWVGTKRYNFDKNGAMYKNAWTNSDKYSYYSTSDGSLAVGHQQIGENKYIFDKNGALYKNMWVDLDGNRYYSKEDGALAIGEQIIDGITYMFDESGKLVNNLEHHHHHH | not failed
12 | MKRKTIRILLISSGLILILLVGYRLYLEYQTDIQLFLNPKASKTQLLERIRSHGFSAALLLVFLTAIMCAVPGIPTSVIGVIAGLSFGPFSGTLINVLGNSMGNLVAIFLMHHIKFLDKKTETNHWVQSIRRMKHPKIGIMVGYMIPIIPSSVINFAADTMQLPLKNLIAAIFIGVIPSSILYACGGEALFHGYNKTAVLLIVSVLLFVGLVVIIEKDRKRFQKTVL | failed
13 | MKRLIGLVIVALVLLAACGSNNDKKVTIGVASNDTKAWEKVKELAKKDDIDVEIKHFSDYNLPNKALNDGDIDMNAFQHFAFLDQYKKAHKGTKISALSTTVLAPLGIYSDKIKDVKKVKDGAKVVIPNDVSNQARALKLLEAAGLIKLKKDFGLAGTVKDITSNPKHLKITAVDAQQTARALSDVDIAVINNGVATKAGKDPKNDPIFLEKSNSDAVKPYINIVAVNDKDLDNKTYAKIVELYHSKEAQKALQEDVKDGEKPVNLSKDEIKAIETSLAK | not failed
14 | MKRLILPIACGICTVTSDAQTDKQPHPNVIFIYADDLGYKDLSCTGSRFYETPHIDKLAREGVCFTQSYAACPVSSPSRAALLTGKYPARINLTDYIPGDRAYGPHKNQRLASLPFNLHLSKDEITMAEAFRQNGYSTFMAGKWHLAESAEYYPEQNGFDINIGGNNTGHPSKGYFSPYGNPQLKDGPEGEYLTDRLTDEVIRYISEPKEKPFFVYLSYYTVHLPLQAKAEKIAKYRRKLSRAVPADSSFVKKGETYHKLVQDIPAYAAMVESLDENIGRLLDTLHRSGLDERTIVVFTSDNGGMATSNTTRNIPTSNLPLRAGKGYLYEGGIKVPAIIRWSGHLKGRQVSDTPIIGTDYYPTLLDLCGLPLLPGQHVDGVSMKPVLQGGRLSRPSLFWHYPHYSGGLGGRPSAAIREGDYKLIEFFEDHHVELYNVIQDESEEKDLSQIYPEIADGLRKKLYLWYKEVGARMPVDNPHYVSPVKDSDSFENKLEHHHHHH | failed
15 | MKRLSTLCLLAAGFFIPGQAHQARPTVLDSVYAPLKVATPPSDAYIGLSLLDNGEIRHYNYGEQAVAGTVYLSSTDHGLTWKRVNRPKEMPFADCQSPVSKEYIRLVDMGAMGVYCIRTSGGLTGGRTLTKVADRNSIMIKPPVFIRNGKRIVVAAHGGVTPKGCYTYFSDDDGLTWKCSNTVTSPDHQGGGFHKGIRWNHGAVEPTVVELKDGTLWMLMRTSQDFHYQAFSKDGGQTWGESEPSPFYGTITMPTLGRLADGRLLLFWCNTTPLPEKEGTDGVWDDVFTNRDVTHVAVSDDDGKTWKGFRELYMDPMRNDIDYAVHGGGIDRGVHQAQFVEVAPGKVLASIGQHPLHRAMMMFDVNWLYEKSRFNDFTDSLSQWSTFNYMNGIKGHCAYNRIQGCMLEPHPRKEGRQVLHLTYRPDASLVADTRGAVWNFPAMKKGTFTVSLRIPEGSHSVSLLLNDRWMNPSDTVARYQSMYELPLTRKQLGVKDDRWHEVSLEWDLLQKRPQARVWVDGRLRPLRLPLKNKSQNGISYVHFIAPPAEANPGVYLEWVRAEADGAI | failed
16 | MKRSIEDTPIVLIGAGNLATNLAKALYRKGFRIVQVYSRTEESARELAQKVEAEYTTDLAEVNPYAKLYIVSLKDSAFAELLQGIVEGKREEALMVHTAGSIPMNVWEGHVPHYGVFYPMQTFSKQREVDFKEIPFFIEASSTEDAAFLKAIASTLSNRVYDADSEQRKSLHLAAVFTCNFTNHMYALAAELLKKYNLPFDVMLPLIDETARKVHELEPKTAQTGPAIRYDENVIGNHLRMLADDPAMQRLYELLSRSIHERQ | not failed
17 | MKRTIFLLMSILLLLTACGDGHKQTSSDKEQSEHKDNHNKNQVKQIATDKKVQGDNYRTILPFKESQARGLLQDNMANGYNGEDFESGLLELSKEIFPTNKYLYQDGQYLDKKTINAYLDPKYTKKEIDKMSEKEKKSKNANENLGLNPSHNGETDEEKIAKNSPAYLSNILEQDFYGNSDSKGKNIKGMTIGLAMNSVYYYKKEKDGETFSKDLSDKEIEKQGKQMASEMLSRLRENSDLKDIPIHFAIYKQSSQDSITPGEFIVGTTVEEGKTKINSWDNINEKAALIPSSTAADYDETLNNNFKQFNDNLQSYFSNFTQAVGKVKFVNKKAKQLTVDLPIDYYGQAETIGITQYVTEQAEKYFDKLDEYEIRIKDGNTPRALISKTKDDKEPQVHIYHN | failed
